Measurements as given in patent US20220308056A1 (OMEROS, published 2022).

Target: T1, MASP-2/C1-INH complex (fluid-phase, from human serum or plasma) (human, UniProt O00187 16-686; P05155 22-500)
T1 construct: also called C1-INH/MASP-2 complex
Assay: sandwich ELISA; mAb coated as capture, anti-C1-INH polyclonal detection, mannan-activated human serum
Description: The microtiter plate was blocked with 280 μl/well of 1% (w/v) BSA in TBS buffer for 1 hr at RT. (ii) Activated control serum was prepared by diluting pooled normal human serum (NHS) to 20% v/v in Tris-buffered saline (TBS; 10 mM Tris-C₁, 140 mM NaCl, pH 7.4) with 5 mM Ca²⁺. Mannan-agarose (100 uL, Sigma cat. M9917) was washed twice with five volumes of TBS/Ca²⁺, and resuspended to 100 μl in the same buffer. 500 μl of 20% serum was added to the 100 μl of mannan-agarose and incubated at room temperature (RT) with gentle shaking or rotation for 30 minutes. EDTA was then added to an end concentration of 10 mM and incubated for a further 2 minutes. The agarose was then spun down and the activated serum was aspirated off and stored at −20° C. (iii) Serial dilutions were prepared from the activated control serum over a range of 0.1% to 20% and the in TBS/Ca²⁺. The blocking buffer was discarded and 100 ul/well of samples or control sera was added to the plate and incubated for 1 hour at room temperature. […] (v) The plate was then washed 3× as described above. 100 μl/well anti-rabbit HRP (Sigma, 1:5000) was added and incubated for a further 45 min. (vi) The plate was then washed 3× as described above and 100 μl/well TMB substrate was added. When blue color developed, 50 μl/well 2N H₂SO₄ was added to stop the reaction and measured at the OD₄₅₀ nm.

T1 sequence (O00187 16-686, chain 1 of 2): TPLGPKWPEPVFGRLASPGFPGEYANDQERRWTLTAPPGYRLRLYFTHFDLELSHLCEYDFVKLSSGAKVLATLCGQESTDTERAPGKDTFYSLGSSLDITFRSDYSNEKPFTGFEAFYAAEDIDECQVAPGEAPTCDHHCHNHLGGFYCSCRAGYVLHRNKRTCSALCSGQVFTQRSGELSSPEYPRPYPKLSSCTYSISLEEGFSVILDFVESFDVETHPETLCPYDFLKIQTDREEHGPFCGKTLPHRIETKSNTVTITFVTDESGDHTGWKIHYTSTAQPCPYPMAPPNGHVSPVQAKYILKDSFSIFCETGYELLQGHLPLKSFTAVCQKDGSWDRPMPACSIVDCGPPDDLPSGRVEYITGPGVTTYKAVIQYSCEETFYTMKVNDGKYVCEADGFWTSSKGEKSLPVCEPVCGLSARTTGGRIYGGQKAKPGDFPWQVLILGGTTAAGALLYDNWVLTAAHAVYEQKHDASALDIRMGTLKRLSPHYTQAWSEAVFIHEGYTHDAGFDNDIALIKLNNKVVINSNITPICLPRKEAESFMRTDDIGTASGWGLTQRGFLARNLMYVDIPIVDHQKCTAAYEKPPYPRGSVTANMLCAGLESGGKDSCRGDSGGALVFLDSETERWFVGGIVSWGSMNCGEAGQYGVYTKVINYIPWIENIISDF
T1 sequence (P05155 22-500, chain 2 of 2): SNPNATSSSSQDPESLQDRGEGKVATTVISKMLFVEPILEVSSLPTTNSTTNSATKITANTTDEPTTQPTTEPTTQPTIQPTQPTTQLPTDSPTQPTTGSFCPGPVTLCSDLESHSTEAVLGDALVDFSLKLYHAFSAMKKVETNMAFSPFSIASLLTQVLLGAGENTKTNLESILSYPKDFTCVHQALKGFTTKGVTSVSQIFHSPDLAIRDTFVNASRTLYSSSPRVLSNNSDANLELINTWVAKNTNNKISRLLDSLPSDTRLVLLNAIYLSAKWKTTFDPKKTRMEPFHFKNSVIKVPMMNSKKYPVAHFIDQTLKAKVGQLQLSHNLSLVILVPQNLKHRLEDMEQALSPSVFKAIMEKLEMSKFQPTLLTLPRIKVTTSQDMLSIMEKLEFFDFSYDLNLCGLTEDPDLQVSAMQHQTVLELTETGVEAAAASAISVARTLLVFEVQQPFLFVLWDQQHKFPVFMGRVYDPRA

binding result: binds
B1: anti-MASP-2 mAb clone #C7 (antibody, V domains shown)
VH: EVKLVESGGGLVKPGGSLKLSCAASGFTFSSYLMSWVRQTPEKRLEWVATISGGGGNTYHPDSMKGRFTISRDNAKNTLYLQMSSLRSEDTALYYCARHGDFGNYFDYWGQGTTLTVSS
VL: DIVMSQSPSSLAVSAGEKVTMSCKSSQSLLNSGTQKNYLAWYQQKPGQSPKLLIYWASTRESGVPDRFTGSGSGTDFTLTISSVQAEDLAVYYCKQSYNLFTFGAGTKLELKR
notes: From hybridomas of immunized MASP-2 KO mice; also called mAb #C7; mAb #7
